According to patent US20070224662:

Target: inactive (non-phosphorylated) HIS-tagged MAPK14
Sequence (chain, as listed by the source): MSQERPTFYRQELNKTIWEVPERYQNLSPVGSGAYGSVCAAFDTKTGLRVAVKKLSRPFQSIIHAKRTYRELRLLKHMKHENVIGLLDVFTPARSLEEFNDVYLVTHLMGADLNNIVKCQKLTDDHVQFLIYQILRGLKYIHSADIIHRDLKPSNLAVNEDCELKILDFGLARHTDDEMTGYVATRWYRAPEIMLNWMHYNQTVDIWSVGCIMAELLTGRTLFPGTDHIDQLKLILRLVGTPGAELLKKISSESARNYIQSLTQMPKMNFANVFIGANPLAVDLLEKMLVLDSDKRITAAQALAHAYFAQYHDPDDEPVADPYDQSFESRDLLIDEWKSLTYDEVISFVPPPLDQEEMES

B1: MKK6 (no-tag upstream kinase) (protein)
chain: MSQSKGKKRNPGLKIPKEAFEQPQTSSTPPRDLDSKACISIGNQNFEVKADDLEPIMELGRGAYGVVEKMRHVPSGQIMAVKRIRATVNSQEQKRLLMDLDISMRTVDCPFTVTFYGALFREGDVWICMELMDTSLDKFYKQVIDKGQTIPEDILGKIAVSIVKALEHLHSKLSVIHRDVKPSNVLINALGQVKMCDFGISGYLVDSVAKTIDAGCKPYMAPERINPELNQKGYSVKSDIWSLGITMIELAILRFPYDSWGTPFQQLKQVVEEPSPQLPADKFSAEFVDFTSQCLKKNSKERPTYPELMQHPFFTLHESKGTDVASFVKLILGD
amount of phosphorylated MAPK14, Western blot with the p38 antibody, at decreasing MKK6 plasmid (FIG. 3): as the concentration of the MKK6 plasmid present in the reaction was decreased, the amount of phosphorylation MAPK14 similarly decreased
phosphorylation of MAPK14, Western blot with anti-phospho-p38 antibody (FIG. 2): co-expression of MAPK14 with MKK6 in the presence of an HEK 293 cell extract greatly enhances the phosphorylation of proteins present in the reaction
